Laboratory results as given in the DeepSol protein solubility set.

Assay: soluble on expression in E. coli; label from the status in PepcDB or PDB records

Soluble on expression in E. coli, not soluble:
MGSDKIHHHHHHMLKHADIWAAIDALARDHGLTASALARKAGLDPTTFNKSKRVTREGKPRWPSTESVAKVLEATGATMTAFVGYIEDTAQARQTANTIPLIGFAQAGDCGYFDDAGYPVGGSWDEIPFPEIGDPHAYALEVSGDSMEPLYRDGDVVIVSPAAGVRRGDRVVVRTTEGEVMVKQLVRQTAKRIELASINPAHPGRSLATEEVAWIARILWSSQ, MGSDKIHHHHHHMLKLSVCLLTCNSARLLMEVLPPLLKVADECIVVDSGSTDETVAICQQFGLTVHHHAYKAHGAQMNYAIGLASHDWVLCMDSDEILDNDVVAAIQALKAGEEPEPTCAWRLPRYWFVLGKQVRTIYPISSPDYPVRLFNRQQARFNDRPVDDQVVGHASSVRLPGFVRHDTFYSLHEVFNKLNSYTTRLVKYQQIKPSLTRGIVSAIGAFFKWYLFSGAWRYGKVGVVTGLYATFYSFLKYFKAWYAHEDNQAPVAQKRTDP, MGSDKIHHHHHHMLKLYSFGPAANSMKPLLTVFEKGLDVEKHRLDPAKFEHHTDWFKAINPRGQVPALVDGDKVVTESTVICEYLEDEYPTEVALRPADSFGKAQMRIWTKWVDEYFCWCVSTIGWHRYVGNMVKSLSDAEFEEKVKAIPVIEQQVKWRRAREGFPQDMLDEEMRKIAYSVRKLDDHLADHEWLVPGQYTLADICNFAIANGMQFGFAELVNKQDTPHLVRWIEQINERPAVKQMFAQVELEKLGPRE, MGSDKIHHHHHHMLLGSFQSVLEARNRDEFRGEVVRFAKRLGFETVSAITVVDHPVGDTEFVAIDNAPDAYKDAIEDPKAGQLDPVMQHCKRQSVPIIWDQSTYVSAGQGSMWEAQARFGFRTGICLALHMPEGRHFVIGVDRDQALPKDRGEVTRLVADLQLFAVHAQDTAMRVLVPERLQLERPKLTPRELDSLRWTMDGKTAWEVGSIMGISERTAVLHINNAMHKLACTNKHQAVLKALRLGLLR, MGSDKIHHHHHHMLLHIPNVLNAEQLRIVRERLDTAGDAWVDGRATAGYQGAPVKRNQQIAEHTPIARELGDVILASIERNPLFISSVLPNQVYPPLFNRYEGGMQFGSHVDGAVRVLPNGVKLRTDVSVTLFISDPADYDGGELVIEDTYGVQQVKLPAGDMIVYPATSLHQVTPVTRGVRVASFFWVQSLVRSDTQRAMLFDMDTAIQRLNATNADDAARRSLVGIYHNLLRTWSEP, MGSDKIHHHHHHMLLKNASFYDDEVLKRADIRLKDSLITEIKENLSPINNEEVIECRDLFVLPSFIDLSVTGLEGYENLKQKAFKGGVGLLNVFNCDQSGIKNIMAIKNNQLADIATLKNKGGEILIAPSDAFLELISHYAKSYNLPLLISLENSFEALNSGELAYELGQNFVENAFENTRLVRFMEVSRALQIPVLLDKVNSITTLKLIKAFNDLGAKLQAQTPLSHLVLDESVYEDYEPRFKIAPPLRDKESQNALKEALKNNEIAMLTSLHASKNSNAQLFEESAFGCESIEDAFSVAYTFLVQKKVISFQQLIKVMAINQAKFLKLNAGEVKENQLANLMIVDLNAQTRVSNQNSPFYGLELYGEVQRMILKGQTTFIKENACKKS, MGSDKIHHHHHHMLLSSDASAFLSPRTVQASRMKPLRIGLFTDTFLPDQNGIVTSVGLLSDELRARGHHVDVVAPFFPEQQDTRPDVRRAPSVRYIFLPTYRLAWPTRKDFEQKYDLIHTHTPLTLGLAGARLARKWDVPHVATYHTHIEAYTHYVPGLTLLQKHTRVVTRLMGLYYRRADAVITPTAAMLDVTREMGVRNPVVIPTSVKPEVLQAAPPVENPWPAGTRRLLTVGRLAREKRFDLVLDTLANLPDAHLVVLGEGPEREHLIRHAERLGVAARVSFLGVKPWTEIGAYYRLAELFLFASDTETQGLVLQEAQLMGVPVIAVGARGTLSGVAQGRSGYLVAPGDVAALTRHAQAILADGQLWRRLSEGARAFGAAWTPGGVAERVLDVYASVLGVPREIPFPEAASPRNTLAYDR, MGSDKIHHHHHHMLNKRAQILLKTLVERYISEGQPVGSRSLSKFSGLDLSAATIRNVMADLEDMGLVASPHASAGRIPTHQGYRFFVDTLLVVKPLDVIEIHQLQDQLHPDNPSRLINSASQLLAELTRFAGVVVSPKRNSAIFRYIEFMSLSEKRVLLIIVTPEGDVQNRVLFTDRNYSQSELTEAANFINHNYAGCAIDEIRTRLQSELKQLRQDMTSLMTAAIDAGDAAIRENSEAVIVAGERKLLDVQDLSSNMASLKKLFDLFERKTALLQLLEFSRKAEGVQIFIGEECGVVTMDEFSVVTAPYRVDGKMVGTVAVIGPTRMAYERVIPVVDMTARLLSSALSLH, MGSDKIHHHHHHMLQQVPTRAFHVIAKPSGSDCNLNCDYCFYLEKQSLYREKPVTHMDDDTLEAYIRHYIAASELQNEVAFTWQGGEPTLLGLEFYRRAVALQAKYGAGRKISNSFQTNGVLLDDEWCAFLAENNFLVGLSLDGPAEIHNQYRVTKGGRPTHKLVMRALTLLQKHHVDYNVLVCVNRTSAQQPLQVYDFLCDAGVEFIQFIPVVERLADETAVRDGLKLHAPGDIQGELTEWSVRPDEFGEFLVAIFDHWIKRDVGKIFVMNIEWAFANFVGAPGAVCHHQPTCGRSVIVEHNGDVYACDHYVYPQYRLGNMHQQTIAEMIDSPQQQVFGEDKFKQLPAQCRSCNVLKACWGGCPKHRFMLDASGKPGLNYLCAGYQRYFRHLPPYLKAMADLLAHGRPASDIMQAHLMVVNK, MGSDKIHHHHHHMLQQYHTKLKGTLALTDSYLTEKALQKEKGLYKFIWVRQGSITVEIDHQEMVLSKDDVISLTHLQHLEFKSIDGEYMTLLFNSNFYCIYGNDHEVSCSGFLFNGSSHLVRFTLNEEERRQLDQITEAMENEFTVSDSLQEEMLRILLKRFIIQCTRIARQRLDITREKESGFEIVRQYYNLVDEHYRTKKQVQDYADMLHKSPKTLSNIFSTCKLPSPLRVIHERVEAEAKRLLLYSNKSAKEIADILGFEDQASFSRFFKNMTGQSAVQFRNTEVGKN, MGSDKIHHHHHHMLQYRSSKMISMEIVEFKWLKFLDRYRSMAKHNLSNSGMPEPDLRSMGIDTRYESYLNEMVDLDAALRDTVARRYGVDRDNVIITNGGTEAIFLASAFISASSEVIAVPSPEYEPIFIVPESLDRRVRRVKLEKIGQAEKNSESLALSLPNNPTGKYGDIADLVRDAGRTYRYVYIDETFHDFTDDRGSSLYDGSKNLIVSNTMTKFYGLSSLRVGWIVSDKENIDAIRRIKDLTTINNARFSLFLARQAIEKWDRFRERTHSIVRKNADIARKELSDFGFYSDEYEGAPFMFVGDGRFDSEMMASKAISGYGVLVAPGSYFGLDGYLRVCLTALDAREDIAAFREFAEKELGK, MGSDKIHHHHHHMLRECDYSQALLEQVNQAISDKTPLVIQGSNSKAFLGRPVTGQTLDVRCHRGIVNYDPTELVITARVGTPLVTIEAALESAGQMLPCEPPHYGEEATWGGMVACGLAGPRRPWSGSVRDFVLGTRIITGAGKHLRFGGEVMKNVAGYDLSRLMVGSYGCLGVLTEISMKVLPRPRASLSLRREISLQEAMSEIAEWQLQPLPISGLCYFDNALWIRLEGGEGSVKAARELLGGEEVAGQFWQQLREQQLPFFSLPGTLWRISLPSDAPMMDLPGEQLIDWGGALRWLKSTAEDNQIHRIARNAGGHATRFSAGDGGFAPLSAPLFRYHQQLKQQLDPCGVFNPGRMYAEL, MGSDKIHHHHHHMLRGLWGAAAGMITQQQRQEMLTNNLANVNTPGYKADQAAIRAFPNMLIAAMNTGNVPKGVAPVIGELTTGVYLQERMPNFRQGDLVETQNNTDVALLQGVMPTNEENGQPWALFYTVQNENGEVRYTRNGNFTVDGDGFLTTGDGFYVLGTDGNPLQVNNEWFNVDGDGMITDEAGAAIGQINVVVAEDPMQLVKEGNGLLRFEGDGELPTGVGNAAVNYQLQQGFIERSNVDAAQTMTEMMQAYRTFEANQQVLRAYDESLGKAVNEVGRIG, MGSDKIHHHHHHMLRKDIGIDLGTANTLVFLRGKGIVVNEPSVIAIDSTTGEILKVGLEAKNMIGKTPATIKAIRPMRDGVIADYTVALVMLRYFINKAKGGMNLFKPRVVIGVPIGITDVERRAILDAGLEAGASKVFLIEEPMAAAIGSNLNVEEPSGNMVVDIGGGTTEVAVISLGSIVTWESIRIAGDEMDEAIVQYVRETYRVAIGERTAERVKIEIGNVFPSKENDELETTVSGIDLSTGLPRKLTLKGGEVREALRSVVVAIVESVRTTLEKTPPELVSDIIERGIFLTGGGSLLRGLDTLLQKETGISVIRSEEPLTAVAKGAGMVLDKVNILKKLQGAG, MGSDKIHHHHHHMLSRFSDSRPAVTVKNVALTYSGADKPALQIEDLTIPEGQCVVLCGQSDSGKSSFLKMLNGLTPEYYPAQLSGQIFLGDLDLQKSSLEEISRHIASVFQHPSTQFFHSQVLQELVFPCENQGLSREEIENRLAWVMELFGLASLSRRTISSLSGGQQQRLALAVTAMQGTDVLVLDEPTANLDQEGIAIVEDILKTLKSQGKTIIIAEHRLSYLSQLADRYLYFQDGQVVTDYLADEFLSRTEECRQDMGLRCYDSEPYGRAIAELADQFVNDKEGLLVENLSVSQKENTLYEIEKLCLASGQVVGLVGANGSGKTSLARYLVGLAEDKKSRISWQGQTLSSRQRLEKTAFVMQDVRLQLFAESVERELTLGRKNRAVDEHLVARFGLSDLLERHPVSLSGGEQQRVMIVASLLADKEIFIFDEPTSGLDLRRMQQVASALVDLKMKNKLVLLISHDEELLNLVCDKIVDIKQLK, MGSDKIHHHHHHMLSVTRYSIKNVRLKPWVKFIWYFETKSNILLNNKLLPTDSIDIILNLSDVMEYKIENQDYTASNMHFNGIRDKHGFIIQHGNIRVIGISFYPFGLYPFLKIPISEFNRQIVDLEAVSQLFAKKLEESLNPIQSVEKIVLYLEEVLLSILEEDLISNKYVKLLNSFIYVNRYSNIKAFCDDTNINIKTLERICLKYTGYTPKILKRIYRFKMASNQLIYNYKDDELFDFIYENEYYDQAHFIKEFKKFSGTSPIKFSGENKTIKENIKYSYL, MGSDKIHHHHHHMLTRMMQATAAIQQSVDGYFAVPTSLLVPDARGGFSIYLKQERGFVLYAKEDEAFTMRHRMQLRAHGVTQVFVPAPQHPSFISHRERHFGRVLSDDSLPLPERARLFYETSTEIVKEVFEKKLPRTLKRETFDRILALVSEGISFLTLENSLKTVASLVAHDYHTYSHSLHVFVYSQALLQSYGFDEDSLVQFGLGAMLHDIGKTFLDAAILTKPAALTPDEREEVNRHPVFGVGACARMPLSQDAINCILFHHEKLDGSGYPCGLRGDEIPLPVRAITIADIYDALTSNRAYAPARNAFQVLRIMSSEMRDQLDLDMFRRFVLMLSGANVL, MGSDKIHHHHHHMLTRQRPLHGIGTTQAAVLKHLRRNGIASRAELAELCGVTQAAVSMMTRDLIARGIVIQGARRQSQRGAPHIDLMLAGNIGYALGVHANSYSLTVTLLDFCGNRIGEQQLEGPYDRFSDIQTAIKSLRTDLLTSNGIDEGLLIGAAVAMPTRFRHGTAFLDLAEEVVSWAGSDLASTLRETLDCPVMIENDANAAAMGELALGNASGHDNFAYLYLSEGIGSGIIIGKELYRGNLGNAGEVGALRARGLSRPSFDDLAAWCKEHQGHIPKGRSSDQWTAYLQANPTVLDAWLRRAGPELATLAFMVTAVLAPSAIYIGGTLPRLVREKLAPWLDFSTSNPFDGARVIQPDILIPQISAVDAVAFGAAAMILHSVPGNPGL
